# Assay results taken from US20260139055A1.
# Target: canine FcRn complex (FcRn-alpha subunit and beta-microglobulin), His-tagged, biotin labeled (canine)
# Assay: SPR (Biacore), biotin-FcRn captured on SA surface, IgG flowed over, pH 6, 15 C
row,Kd [nM],Binder
1,7.04,"canine IgGB (65) mAb with mutation T286K (antibody, part only; not given: Variable domains, not shown: another chain or arm of the molecule) constant: ASTTAPSVFPLAPSCGSTSGSTVALACLVSGYFPEPVTVSWNSGSLTSGVHTFPSVLQSSGLYSLSSMVTVPSSRWPSETFTCNVAHPASKTKVDKPVPKRENGRVPRPPDCPKCPAPEMLGGPSVFIFPPKPKDTLLIARTPEVTCVVVDLDPEDPEVQISWFVDGKQMQKAKTQPREEQFNGTYRVVSVLPIGHQDWLKGKQFTCKVNNKALPSPIERTISKARGQAHQPSVYVLPPSREELSKNTVSLTCLIKDFFPPDIDVEWQSNGQQEPESKYRTTPPQLDEDGSYFLYSKLSVDKSRWQRGDTFICAVMHEALHNHYTQESLSHSPGK"
2,5.56,"canine IgGB (65) mAb with mutation Y436V (antibody, part only; not given: variable domains of unnamed mAb, not shown: another chain or arm of the molecule) constant: ASTTAPSVFPLAPSCGSTSGSTVALACLVSGYFPEPVTVSWNSGSLTSGVHTFPSVLQSSGLYSLSSMVTVPSSRWPSETFTCNVAHPASKTKVDKPVPKRENGRVPRPPDCPKCPAPEMLGGPSVFIFPPKPKDTLLIARTPEVTCVVVDLDPEDPEVQISWFVDGKQMQTAKTQPREEQFNGTYRVVSVLPIGHQDWLKGKQFTCKVNNKALPSPIERTISKARGQAHQPSVYVLPPSREELSKNTVSLTCLIKDFFPPDIDVEWQSNGQQEPESKYRTTPPQLDEDGSYFLYSKLSVDKSRWQRGDTFICAVMHEALHNHVTQESLSHSPGK"
3,5.23,"canine IgGB (65) mAb with mutation T286M (antibody, part only; not given: variable domains of unnamed mAb, not shown: another chain or arm of the molecule) constant: ASTTAPSVFPLAPSCGSTSGSTVALACLVSGYFPEPVTVSWNSGSLTSGVHTFPSVLQSSGLYSLSSMVTVPSSRWPSETFTCNVAHPASKTKVDKPVPKRENGRVPRPPDCPKCPAPEMLGGPSVFIFPPKPKDTLLIARTPEVTCVVVDLDPEDPEVQISWFVDGKQMQMAKTQPREEQFNGTYRVVSVLPIGHQDWLKGKQFTCKVNNKALPSPIERTISKARGQAHQPSVYVLPPSREELSKNTVSLTCLIKDFFPPDIDVEWQSNGQQEPESKYRTTPPQLDEDGSYFLYSKLSVDKSRWQRGDTFICAVMHEALHNHYTQESLSHSPGK"
4,3.87,"canine IgGB (65) mAb with mutation Y436W (antibody, part only; not given: variable domains of unnamed mAb, not shown: another chain or arm of the molecule) constant: ASTTAPSVFPLAPSCGSTSGSTVALACLVSGYFPEPVTVSWNSGSLTSGVHTFPSVLQSSGLYSLSSMVTVPSSRWPSETFTCNVAHPASKTKVDKPVPKRENGRVPRPPDCPKCPAPEMLGGPSVFIFPPKPKDTLLIARTPEVTCVVVDLDPEDPEVQISWFVDGKQMQTAKTQPREEQFNGTYRVVSVLPIGHQDWLKGKQFTCKVNNKALPSPIERTISKARGQAHQPSVYVLPPSREELSKNTVSLTCLIKDFFPPDIDVEWQSNGQQEPESKYRTTPPQLDEDGSYFLYSKLSVDKSRWQRGDTFICAVMHEALHNHWTQESLSHSPGK"
5,5.97,"canine IgGB (65) mAb with mutation Y436S (antibody, part only; not given: variable domains of unnamed mAb, not shown: another chain or arm of the molecule) constant: ASTTAPSVFPLAPSCGSTSGSTVALACLVSGYFPEPVTVSWNSGSLTSGVHTFPSVLQSSGLYSLSSMVTVPSSRWPSETFTCNVAHPASKTKVDKPVPKRENGRVPRPPDCPKCPAPEMLGGPSVFIFPPKPKDTLLIARTPEVTCVVVDLDPEDPEVQISWFVDGKQMQTAKTQPREEQFNGTYRVVSVLPIGHQDWLKGKQFTCKVNNKALPSPIERTISKARGQAHQPSVYVLPPSREELSKNTVSLTCLIKDFFPPDIDVEWQSNGQQEPESKYRTTPPQLDEDGSYFLYSKLSVDKSRWQRGDTFICAVMHEALHNHSTQESLSHSPGK"
6,8.65,"canine IgGB (65) mAb with mutation Y436T (antibody, part only; not given: Variable domains, not shown: another chain or arm of the molecule) constant: ASTTAPSVFPLAPSCGSTSGSTVALACLVSGYFPEPVTVSWNSGSLTSGVHTFPSVLQSSGLYSLSSMVTVPSSRWPSETFTCNVAHPASKTKVDKPVPKRENGRVPRPPDCPKCPAPEMLGGPSVFIFPPKPKDTLLIARTPEVTCVVVDLDPEDPEVQISWFVDGKQMQTAKTQPREEQFNGTYRVVSVLPIGHQDWLKGKQFTCKVNNKALPSPIERTISKARGQAHQPSVYVLPPSREELSKNTVSLTCLIKDFFPPDIDVEWQSNGQQEPESKYRTTPPQLDEDGSYFLYSKLSVDKSRWQRGDTFICAVMHEALHNHTTQESLSHSPGK"
